For one test, the target named is recombinant His-tagged CD38 (Homo sapiens, UniProt P28907). The test can be described thus: Pepscan-based ELISA of His-tagged CD38 on CD31 peptide arrays. In kind it is binding. The note with it: mimic type BET (β-turn mimic, mP2 CLIPS); sample with the highest signal. From the text:
Different sets of sCD31 peptides were synthesized according to the following designs. Note that actual order of peptides on mini-cards in some was randomized. • Set #1 • Mimic type: linear • Label: LIN15 • Linear peptides of 15 consecutive amino acid residues in length, derived from the target sequence of sCD31 with an offset of […]. • Set #2 • Mimic type: single loop (mP2 CLIPS) • Label: LOOP7 • Constrained peptides of 9 amino acid residues in length. On positions 2-8 are incorporated 7 consecutive amino acid residues derived from the target sequence of sCD31 with an offset of 1.3 residues. Cys residues were inserted on positions 1 and 9 and joined by mP2 CLIPS in order to create a loop mimic. Native Cys residues, if present, were replaced by Ser residues. • Set #3 • Mimic type: single loop, (mP2 CLIPS) • Label: LOOP15 • Constrained peptides of 17 amino acid residues in length. On positions 2-16 are incorporated 15 consecutive amino acid residues derived from the target sequence of sCD31 with an offset of […]. Cys residues were inserted on positions 1 and 17 and joined by mP2 CLIPS in order to create a loop mimic. Native Cys residues, if present, were replaced by Ser residues. • Set #4 • Mimic type: β-turn peptide mimics (mP2 CLIPS) • Label: BET • β-turn peptide mimics of 22 amino acid residues in length. On positions 2-21 are incorporated 20 consecutive amino acid residues derived from the target sequence of sCD31 with an offset of 1.3 residues. Residues on positions 11 and 12 are replaced by a Pro-Gly motif in order to induce the β-turn formation. Cys residues were inserted on positions 1 and 22 and joined by mP2 CLIPS in order to stabilize the mimic. Native Cys residues, if present, were replaced by Ser residues.
To reconstruct epitopes of sCD31, a library of peptide-based peptide mimics was synthesized using Fmoc-based solid-phase peptide synthesis. An amino functionalized polypropylene support was obtained by grafting with a hydrophilic polymer formulation, followed by reaction with t-butyloxycarbonyl-hexamethylenediamine (BocHMDA) using dicyclohexylcarbodiimide (DCC) with N-hydroxybenzotriazole (HOBt) and subsequent cleavage of the Boc-groups using trifluoroacetic acid (TFA).
Standard Fmoc-peptide synthesis was used to synthesize peptides on the amino-functionalized solid support by custom modified JANUS liquid handling stations (Perkin Elmer).
Synthesis of structural mimics was done using CLIPS technology. CLIPS technology allows to structure peptides into single loops, double loops, triple loops, sheet-like folds, helix-like folds, and combinations thereof. CLIPS templates are coupled to cysteine residues. The side-chains of multiple cysteines in the peptides are coupled to one or two CLIPS templates. For example, a 0.5 mM solution of the P2 CLIPS (2,6-bis(bromomethyl)pyridine) is dissolved in ammonium bicarbonate (20 mM, pH 7.8)/acetonitrile (1:3, v/v). This solution is added onto the peptide arrays. The CLIPS template binds to side-chains of two cysteines as present in the solid-phase bound peptides of the peptide-arrays (455 wells plate with 3-µL wells). The peptide arrays are gently shaken in the solution for 30 to 60 minutes while completely covered in solution.
Finally, the peptide arrays are washed extensively with excess of H2O and sonicated in disrupt-buffer containing 1% SDS / 0.1 % 2,2′-(ethylenedioxy)diethanethiol in PBS (pH 7.2) at 70° C. for 30 minutes, followed by sonication in H2O for another 45 minutes.
The binding of the sample (recombinant His-tagged CD38; 9 µg/mL and 20 µg/mL) to each of the synthesized peptides was tested in a pepscan-based ELISA. The peptide arrays were incubated with primary sample solution (overnight at 4° C.). […]
Turning to “14 (CPPANFTIQKPGTIVSQTQDFC; Human sCD31 peptide) [compound 14]”, the “Value (binding intensity of His-tagged CD38), BET conformational peptide array” value (“Value … BET conformational peptide array” for short) came to 739 mAU.
On the same count and under the same terms, next, “283 (CLSEVLRVKVPGPVDEVQISIC) [compound 283]”: 601 mAU.
Same read-out and setting: next, “276 (CLKREKNSRDPGFVILEFPVEC) [compound 276]”: 817 mAU; “274 (CKMVKLKREKPGRDQNFVILEC) [compound 274]”: 897 mAU.
In the case of “270 (CYKDDVLFYNPGSMKSTESYFC) [compound 270]”, the “Value … BET conformational peptide array” value is 378 mAU.
As to “282 (CVVSEMLSQPPGSYDAQFEVIC) [compound 282]”, the “Value … BET conformational peptide array” value is recorded as 635 mAU.
Same read-out and setting: next, “266 (CTSHVKPQHQPGFYKDDVLFYC) [compound 266]”: 725 mAU.

The same test, now with this note: mimic type LIN15; sample with the highest signal (His-tagged CD38 9 or 20 µg/mL).
104 (KVSSIVVNITELFSK) [compound 104]: the “Value (binding intensity of His-tagged CD38), LIN15 linear peptide array” value was found to be 155 mAU.
The same measure, in the same setting: next, 74 (KREKNSRDQNFVILE) [compound 74]: 440 mAU.
Same read-out and setting: next, “6 (NSRDQNFVILEFPVE; Human sCD31 peptide) [compound 6]”: 1230 mAU; 33 (HQMLFYKDDVLFYNI) [compound 33]: 441 mAU; 77 (KNSRDQNFVILEFPV) [compound 77]: 502 mAU.
On the same count and under the same terms, to 172 (EQEGEYYCTAFNRAN) [compound 172] belongs 340 mAU; to 169 (QKASKEQEGEYYCTA) [compound 169], 316 mAU; to 122 (DPAVFKDNPTEDVEY) [compound 122], 402 mAU.
In the case of 78 (RDQNFVILEFPVEEQ) [compound 78], the “Value (binding intensity of His-tagged CD38), LIN15 linear peptide array” value worked out at 1021 mAU.

The test is the same for the next values; noted with them: mimic type LOOP7 (single loop, mP2 CLIPS); sample with the highest signal.
On to 211 (CDAQFEVIC) [compound 211], for which the “Value (binding intensity of His-tagged CD38), LOOP7 conformational peptide array” value (“Value … LOOP7 conformational peptide array” for short) was determined as 429 mAU.
Same read-out and setting: next, 190 (CVRIYDSGC) [compound 190]: 479 mAU.
On to 216 (CEVQISILC) [compound 216], for which the “Value … LOOP7 conformational peptide array” value came to 529 mAU.
For the substance 217 (CVQISILSC) [compound 217], the “Value … LOOP7 conformational peptide array” value came to 416 mAU.
On the same count and under the same terms, to 191 (CRIYDSGTC) [compound 191] belongs 395 mAU; to 192 (CTAEYQVLC) [compound 192], 492 mAU; to 200 (CAQEFPEIC) [compound 200], 429 mAU.
On the same count and under the same terms, next, 193 (CAEYQVLVC) [compound 193]: 508 mAU; 207 (CNITELFSC) [compound 207]: 512 mAU.
Still for that read-out and setting: next, 184 (CKSTESYFC) [compound 184]: 339 mAU; 203 (CSSIVVNIC) [compound 203]: 364 mAU.
In the case of 167 (CEDVEYQSC) [compound 167], the “Value … LOOP7 conformational peptide array” value is listed as 804 mAU.
Same read-out and setting: to 206 (CVNITELFC) [compound 206] belongs 625 mAU; to 196 (CQNFVILEC) [compound 196], 942 mAU.
Same read-out and setting: to 219 (CSGEDIVLC) [compound 219] belongs 573 mAU.
On to 178 (CMLFYKDDC) [compound 178], for which the “Value … LOOP7 conformational peptide array” value was 542 mAU.
As for 222 (CKEQEGEYC) [compound 222], the “Value … LOOP7 conformational peptide array” value was 385 mAU.
The same measure, in the same setting: to 204 (CSIVVNITC) [compound 204] belongs 387 mAU; to 173 (CNLTLQSFC) [compound 173], 370 mAU.
The same measure, in the same setting: to 213 (CPTEDVEYC) [compound 213] belongs 407 mAU.

The same test, now with this note: mimic type LOOP15 (single loop, mP2 CLIPS); sample with the highest signal.
In the case of 239 (CISSMKSTESYFIPEVC) [compound 239], the “Value (binding intensity of His-tagged CD38), LOOP15 conformational peptide array” value (from here on “Value … LOOP15 conformational peptide array”) came to 499 mAU.
On the same count and under the same terms, to “9 (CRDQNFVILEFPVEEQC; Human sCD31 peptide) [compound 9]” belongs 1110 mAU.
Same read-out and setting: to 240 (CSSMKSTESYFIPEVRC) [compound 240] belongs 343 mAU; to 246 (CYFIPEVRIYDSGTYKC) [compound 246], 416 mAU; to 241 (CMKSTESYFIPEVRIYC) [compound 241], 325 mAU.
For 259 (CVTHLAQEFPEIIIQKC) [compound 259], the “Value … LOOP15 conformational peptide array” value came to 343 mAU.
Still for that read-out and setting: to 228 (CVKPQHQMLFYKDDVLC) [compound 228] belongs 411 mAU; to 253 (CNFVILEFPVEEQDRVC) [compound 253], 524 mAU.
Same read-out and setting: next, 230 (CQHQMLFYKDDVLFYNC) [compound 230]: 600 mAU; 258 (CQVTHLAQEFPEIIIQC) [compound 258]: 617 mAU.
Still for that read-out and setting: to 234 (CLFYKDDVLFYNISSMC) [compound 234] belongs 497 mAU; to 164 (CNSRDQNFVILEFPVEC) [compound 164], 965 mAU; to 232 (CQMLFYKDDVLFYNISC) [compound 232], 646 mAU.
For 249 (CEKNSRDQNFVILEFPC) [compound 249], the “Value … LOOP15 conformational peptide array” value came out at 566 mAU.
Same read-out and setting: to 256 (CTIQVTHLAQEFPEIIC) [compound 256] belongs 504 mAU; to 250 (CKNSRDQNFVILEFPVC) [compound 250], 624 mAU; to 257 (CIQVTHLAQEFPEIIIC) [compound 257], 797 mAU.
Same read-out and setting: to 263 (CSKVSSIVVNITELFSC) [compound 263] belongs 593 mAU; to 237 (CYNISSMKSTESYFIPC) [compound 237], 370 mAU.
Still for that read-out and setting: next, 236 (CFYNISSMKSTESYFIC) [compound 236]: 552 mAU; 247 (CKREKNSRDQNFVILEC) [compound 247]: 516 mAU; 242 (CKSTESYFIPEVRIYDC) [compound 242]: 528 mAU.

The values above are taken from patent publication US20230357354A1, “CD38-BINDING CD31 PEPTIDES AND USES THEREOF” (ENCEFA, priority 2020, published 2023).
